Data taken from patent US8821862B2, “Soluble β-N-acetylglucosaminidase based antibiofilm compositions and uses thereof” (Kane Biotech Inc., priority 2002, dated 2014).

Columns and labels:
[1] = system: A. actinomycetemcomitans strain CU1000 (wild-type) biofilms; test: Biofilm detachment assay (crystal violet); assay type: cell-based
Description: (§1) Bacterial strains, media, and growth conditions. A. actinomycetemcomitans strain CU1000 (serotype f) was isolated from a person with localized aggressive periodontitis (Fine et al., Microbiol. 1999, 145: 1335-1347). […] An isogenic PGA mutant strain HW1018 (CU1000 pgaC::IS903φKan) was isolated by randomly mutagenizing CU1000 with transposon IS903φKan and selecting mutants that produced white colonies on Congo red agar, as previously described (Kaplan et al., 2003; Kaplan et al., J. Bacteriol. 2004, 186: 8213-8220). Like other pgaC mutant strains, HW1018 was completely deficient in PGA production, but still formed tenacious biofilms on plastic surfaces (Kaplan et al., 2004). Bacteria were grown in trypticase soy broth supplemented with […] and 8 g/L glucose. Solid medium was supplemented with 15 g/L agar. All cultures were incubated statically at 37° C. in 10% CO2.
(§2) Biofilm Cultures. Biofilms were grown in 17 mm×100 mm culture tubes (untreated polystyrene; Falcon #352051) or 96-well microtiter plates (tissueculture-treated polystyrene, flat bottoms; Falcon #353072). Culture vessels were inoculated with a 1:10 dilution of inoculum in fresh broth (1 mL for tubes or 200 μL for microplates) and incubated for 24 h.
(§3) Crystal Violet Assay. Biofilm biomass was visualized and quantitated by means of a crystal violet binding assay as previously described (Kaplan et al., Antimicrob. Agents Chemother. 2004, 48: 2633-2636). Briefly, biofilms were rinsed with water to remove loosely attached cells, stained for 1 min with Gram's crystal violet (200 μL for microplates and 1 mL for tubes), rinsed, dried, and photographed. For quantitation of biofilms grown in microplates, biofilms were de-stained with 200 μL of 33% acetic acid for 5 min, and the absorbance of the crystal violet solution was measured directly in the plate by means of a BioRad Benchmark microtiter plate-reader set at 590 nm. Crystal violet binds to bacterial biofilms, but not to polystyrene (O'Toole & Kolter, Mol. Microbiol. 1998, 28: 449-461).
(§4) Biofilm Detachment Assay. Biofilms were rinsed with water and treated with 200 μL (for microplates) or 1 mL (for tubes) of DispersinB™ (20 μg/mL in PBS) or SDS (0.001-1% in PBS). After a five- or 30-minute incubation at 37° C., biofilms were rinsed with water and stained with crystal violet as described above. In some assays, biofilms were first treated with DispersinB™ for 5 or 30 min, rinsed, and then treated with SDS. All detachment assays were performed in duplicate wells or tubes. All assays were performed on at least 3 separate occasions, with similar results.

[2] = system: A. actinomycetemcomitans strain HW1018 (PGA mutant) biofilms; test: Biofilm detachment assay (crystal violet); assay type: cell-based; conditions: DispersinB 20 μg/mL; either culture vessel
Description: as §1, §2, §3, §4

[3] = system: A. actinomycetemcomitans CU1000 biofilms; test: Biofilm killing assay; assay type: cell-based; conditions: DispersinB alone, 20 μg/mL
Description: Biofilm Killing Assay. […] Tubes were vortexed for 10 s, and 20 μL aliquots of the detached biofilms were transferred to the wells of a flat-bottomed 96-well microtiter plate containing 180 μL of fresh broth. Five serial dilutions (20 μL into 180 μL) were performed directly into adjacent wells. Plates were incubated for 48 h and then rinsed and stained with crystal violet as described above. Wells containing 30-300 biofilm colonies were photographed under a dissecting microscope and counted. In some assays, biofilms were pre-treated with 1 mL of DispersinB™ (20 μg/mL in PBS) for 5 min prior to the SDS treatment. In these assays, a 100 μL quantity of SDS in PBS (at 10 times the test concentration) was added directly to the DispersinB™-treated cell suspension and mixed. After 5 min, tubes were vortexed briefly, and 20-μL aliquots of culture were enumerated as described above. Killing assays were performed in duplicate tubes on at least 5 separate occasions, with similar results.

S. epidermidis = test: In vitro microplate growth and biofilm formation assay (crystal violet); assay type: cell-based, Staphylococcus epidermidis; conditions: DispersinB at different concentrations, TSB, 37° C., 24 hours
Description: An overnight culture of S. epidermidis in Tryptic Soy Broth (TSB) was used as inoculum. Bacteria were grown in TSB on a 96-well microtiterplate in the absence and presence of each compound (DispersinB™ or TCSN) at different concentrations separately and together (DispersinB™+TCSN). Concentrations of DispersinB™ included 25 ng/ml, 50 ng/ml, and 100 ng/ml. Concentrations of TCSN included 25 μg/ml, 50 μg/ml, and 100 μg/ml. The plate was incubated at 37° C. for 24 hours. The growth and biofilm was measured as explained in Example 1.
The experiment was performed as explained in Example 1.
An in vitro microtiter assay was performed to determine the effect of DispersinB™ wound gel on the growth and biofilm formation of Staphylococcus epidermidis. S. epidermidis biofilm was grown in tryptic soy broth (TSB). S. epidermidis was grown in 96-well microtiter plate in the absence and presence of DispersinB™ wound gel at different concentrations. The plate was incubated at 37° C. for 24 hours.
In vitro microplate assay was performed to determine the synergistic effect of DispersinB™ and triclosan (an antimicrobial agent) on the growth and biofilm formation of S. epidermidis. Overnight culture of S. epidermidis in Tryptic Soy Broth (TSB) was used as inoculum. […]

B1: DispersinB™: 381 amino acid soluble β-N-acetylglucosaminidase encoded by dspB of A. actinomycetemcomitans; mature polypeptide SEQ ID NO:11 (protein)
chain: NCCVKGNSIYPQKTSTKQTGLMLDIARHFYSPEVIKSFIDTISLSGGNFLHLHFSDHENYAIESHLLNQRAENAVQGKDGIYINPYTGKPFLSYRQLDDIKAYAKAKGIELIPELDSPNHMTAIFKLVQKDRGVKYLQGLKSRQVDDEIDITNADSITFMQSLMSEVIDIFGDTSQHFHIGGDEFGYSVESNHEFITYANKLSYFLEKKGLKTRMWNDGLIKNTFEQINPNIEITYWSYDGDTQDKNEAAERRDMRVSLPELLAKGFTVLNYNSYYLYIVPKASPTFSQDAAFAAKDVIKNWDLGVWDGRNTKNRVQNTHEIAGAALSIWGEDAKALKDETIQKNTKSLLEAVIHKTNGDE
modifications: Actinobacillus actinomycetemcomitans
detachment of wild-type biofilms from microplate wells ([1]; DispersinB 20 μg/mL in PBS, 5 min, 96-well microplate wells): not from microplate wells | detachment of wild-type biofilms from tubes ([1]; DispersinB 20 μg/mL in PBS, 5 min, polystyrene tubes): rapid detachment | single cells in suspension after disaggregation of biofilms ([1]; biofilms grown in tubes, DispersinB, microscopic analyses (data not shown)): > 99% | attachment of PGA mutant biofilms [2]: no effect | killing of A. actinomycetemcomitans biofilms ([3]; 5 min or 30 min): did not significantly kill | reduction in the number of CFU/tube ([3]; 30 min, versus mock-treated controls): little or no reduction | biofilm formation (S. epidermidis): appreciable effect
